# Assay results: patent US20170145113A1 (Genentech, published 2017)
# Biological target: T1, His-tagged human HtrA1 protease domain (human, UniProt Q92743 161-367)
# T1 construct: His-tagged protease domain; also called huHtrA1-PD-His; huHtrA1-PD
# Assay: SPR (BIACORE T200), huHtrA1-PD-His captured by anti-His, Fab injected
# Protocol: These combination mutants included both a variant light chain and a variant heavy chain. BIACORE™ kinetic analysis was performed (as described below in Section C) using the combination mutants.
# (§1) To determine the binding affinity of selected Fab variants for HtrA1, SPR measurement with a BIACORE™ T200 instrument was performed. Briefly, a series S sensor chip CM5 was activated with 1-EDC and NHS reagents according to the supplier's instructions, and anti-His antibody was coupled to achieve 200-300 response units (RU), then following by blocking un-reacted groups with 1 M ethanolamine. For kinetics measurements, approximately 5 nM of huHtrA1-PD-His was first injected at 10 μl/min flow rate to capture approximately 100 RU at 2 different flow cells (FC), except for FC1 (which served as a reference). Next, 5-fold serial dilutions of Fab in HBS-P buffer (0.01M HEPES pH 7.4, 0.15M NaCl, 0.005% surfactant P20) from low (0.8 nM) to high (50 nM) were injected (flow rate: 30 μl/min). The binding responses on HtrA1 were corrected by subtracting of RU from a blank flow cell. The sensorgram was recorded and subject to reference and buffer subtraction before evaluating by BIACORE® T200 Evaluation Software (version 2.0). Association rates (kₒₙ) and dissociation rates (koff) were calculated using a simple one-to-one Langmuir binding model. The equilibrium dissociation constant (KD) was calculated as the ratio of koff/kₒₙ.
# T1 sequence (Q92743 other isoform, or with tags, fused parts or gaps limits assumed): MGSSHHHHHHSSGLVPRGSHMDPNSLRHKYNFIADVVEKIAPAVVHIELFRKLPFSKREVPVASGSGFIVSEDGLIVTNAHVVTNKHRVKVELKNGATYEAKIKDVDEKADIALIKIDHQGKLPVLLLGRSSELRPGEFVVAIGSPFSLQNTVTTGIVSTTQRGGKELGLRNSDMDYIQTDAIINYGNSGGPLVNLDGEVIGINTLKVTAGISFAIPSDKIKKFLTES
Binder,Kd [nM],koff [s⁻¹],kon [M⁻¹ s⁻¹]
"combination mutant LC3.HC2 Fab (Fab, V domains shown, Fab) VH: EVQLVQSGAEVKKPGASVKVSCKASGYTFRDSEMHWVRQAPGQGLEWIGGVDPETDGAAYNQKFKGRATITRDTSTSTAYLELSSLRSEDTAVYYCTRGYDYDYALDYWGQGTLVTVSS VL: DIQMTQSPSSLSASVGDRVTITCRASSSVEFIHWYQQKPGKAPKPLISATSNLASGVPSRFSGSGSGTDFTLTISSLQPEDFATYYCQQWSSNPWTFGQGTKVEIK",0.302,0.000109,362000
"combination mutant LC3.HC3 Fab (Fab, V domains shown, Fab) VH: EVQLVQSGAEVKKPGASVKVSCKASGYKFTDSEMHWVRQAPGQGLEWIGGVDPETDGAAYNQKFKGRATITRDTSTSTAYLELSSLRSEDTAVYYCTRGYDYDYALDYWGQGTLVTVSS VL: DIQMTQSPSSLSASVGDRVTITCRASSSVEFIHWYQQKPGKAPKPLISATSNLASGVPSRFSGSGSGTDFTLTISSLQPEDFATYYCQQWSSNPWTFGQGTKVEIK",0.0616,4.93e-05,801000
"combination mutant LC3.HC5 Fab (Fab, V domains shown, Fab) VH: EVQLVQSGAEVKKPGASVKVSCKASGYTFTDSELHWVRQAPGQGLEWIGGVDPETDGAAYNQKFKGRATITRDTSTSTAYLELSSLRSEDTAVYYCTRGYDYDYALDYWGQGTLVTVSS VL: DIQMTQSPSSLSASVGDRVTITCRASSSVEFIHWYQQKPGKAPKPLISATSNLASGVPSRFSGSGSGTDFTLTISSLQPEDFATYYCQQWSSNPWTFGQGTKVEIK",0.176,0.000102,577000
"combination mutant LC4.HC1 Fab (Fab, V domains shown, Fab) VH: EVQLVQSGAEVKKPGASVKVSCKASGYTFKDSEMHWVRQAPGQGLEWIGGVDPETDGAAYNQKFKGRATITRDTSTSTAYLELSSLRSEDTAVYYCTRGYDYDYALDYWGQGTLVTVSS VL: DIQMTQSPSSLSASVGDRVTITCRASSSVNFIHWYQQKPGKAPKPLISATSHLASGVPSRFSGSGSGTDFTLTISSLQPEDFATYYCQQWSSNPWTFGQGTKVEIK",0.852,0.000228,268000
"combination mutant LC4.HC2 Fab (Fab, V domains shown, Fab) VH: EVQLVQSGAEVKKPGASVKVSCKASGYTFRDSEMHWVRQAPGQGLEWIGGVDPETDGAAYNQKFKGRATITRDTSTSTAYLELSSLRSEDTAVYYCTRGYDYDYALDYWGQGTLVTVSS VL: DIQMTQSPSSLSASVGDRVTITCRASSSVNFIHWYQQKPGKAPKPLISATSHLASGVPSRFSGSGSGTDFTLTISSLQPEDFATYYCQQWSSNPWTFGQGTKVEIK",7.98,0.000222,27800
"combination mutant LC4.HC3 Fab (Fab, V domains shown, Fab) VH: EVQLVQSGAEVKKPGASVKVSCKASGYKFTDSEMHWVRQAPGQGLEWIGGVDPETDGAAYNQKFKGRATITRDTSTSTAYLELSSLRSEDTAVYYCTRGYDYDYALDYWGQGTLVTVSS VL: DIQMTQSPSSLSASVGDRVTITCRASSSVNFIHWYQQKPGKAPKPLISATSHLASGVPSRFSGSGSGTDFTLTISSLQPEDFATYYCQQWSSNPWTFGQGTKVEIK",2.18,0.00024,110000
"combination mutant LC4.HC5 Fab (Fab, V domains shown, Fab) VH: EVQLVQSGAEVKKPGASVKVSCKASGYTFTDSELHWVRQAPGQGLEWIGGVDPETDGAAYNQKFKGRATITRDTSTSTAYLELSSLRSEDTAVYYCTRGYDYDYALDYWGQGTLVTVSS VL: DIQMTQSPSSLSASVGDRVTITCRASSSVNFIHWYQQKPGKAPKPLISATSHLASGVPSRFSGSGSGTDFTLTISSLQPEDFATYYCQQWSSNPWTFGQGTKVEIK",1.4,0.000297,212000
"combination mutant LC5.HC1 Fab (Fab, V domains shown, Fab) VH: EVQLVQSGAEVKKPGASVKVSCKASGYTFKDSEMHWVRQAPGQGLEWIGGVDPETDGAAYNQKFKGRATITRDTSTSTAYLELSSLRSEDTAVYYCTRGYDYDYALDYWGQGTLVTVSS VL: DIQMTQSPSSLSASVGDRVTITCRASSSVNFIHWYQQKPGKAPKPLISATSELASGVPSRFSGSGSGTDFTLTISSLQPEDFATYYCQQWSSNPWTFGQGTKVEIK",1.1,0.00023,208000
"combination mutant LC5.HC2 Fab (Fab, V domains shown, Fab) VH: EVQLVQSGAEVKKPGASVKVSCKASGYTFRDSEMHWVRQAPGQGLEWIGGVDPETDGAAYNQKFKGRATITRDTSTSTAYLELSSLRSEDTAVYYCTRGYDYDYALDYWGQGTLVTVSS VL: DIQMTQSPSSLSASVGDRVTITCRASSSVNFIHWYQQKPGKAPKPLISATSELASGVPSRFSGSGSGTDFTLTISSLQPEDFATYYCQQWSSNPWTFGQGTKVEIK",0.719,0.000211,294000
"combination mutant LC5.HC3 Fab (Fab, V domains shown, Fab) VH: EVQLVQSGAEVKKPGASVKVSCKASGYKFTDSEMHWVRQAPGQGLEWIGGVDPETDGAAYNQKFKGRATITRDTSTSTAYLELSSLRSEDTAVYYCTRGYDYDYALDYWGQGTLVTVSS VL: DIQMTQSPSSLSASVGDRVTITCRASSSVNFIHWYQQKPGKAPKPLISATSELASGVPSRFSGSGSGTDFTLTISSLQPEDFATYYCQQWSSNPWTFGQGTKVEIK",1.08,0.000251,233000
"combination mutant LC5.HC5 Fab (Fab, V domains shown, Fab) VH: EVQLVQSGAEVKKPGASVKVSCKASGYTFTDSELHWVRQAPGQGLEWIGGVDPETDGAAYNQKFKGRATITRDTSTSTAYLELSSLRSEDTAVYYCTRGYDYDYALDYWGQGTLVTVSS VL: DIQMTQSPSSLSASVGDRVTITCRASSSVNFIHWYQQKPGKAPKPLISATSELASGVPSRFSGSGSGTDFTLTISSLQPEDFATYYCQQWSSNPWTFGQGTKVEIK",0.877,0.000296,337000
"combination mutant LC7.HC1 Fab (Fab, V domains shown, Fab) VH: EVQLVQSGAEVKKPGASVKVSCKASGYTFKDSEMHWVRQAPGQGLEWIGGVDPETDGAAYNQKFKGRATITRDTSTSTAYLELSSLRSEDTAVYYCTRGYDYDYALDYWGQGTLVTVSS VL: DIQMTQSPSSLSASVGDRVTITCRASSSVNFIHWYQQKPGKAPKPLISATSNLASGVPSRFSGSGSGTDFTLTISSLQPEDFATYYCQQWYSNPWTFGQGTKVEIK",0.772,0.000267,347000
"combination mutant LC7.HC2 Fab (Fab, V domains shown, Fab) VH: EVQLVQSGAEVKKPGASVKVSCKASGYTFRDSEMHWVRQAPGQGLEWIGGVDPETDGAAYNQKFKGRATITRDTSTSTAYLELSSLRSEDTAVYYCTRGYDYDYALDYWGQGTLVTVSS VL: DIQMTQSPSSLSASVGDRVTITCRASSSVNFIHWYQQKPGKAPKPLISATSNLASGVPSRFSGSGSGTDFTLTISSLQPEDFATYYCQQWYSNPWTFGQGTKVEIK",0.0955,0.000189,1.97e+06
"combination mutant LC7.HC3 Fab (Fab, V domains shown, Fab) VH: EVQLVQSGAEVKKPGASVKVSCKASGYKFTDSEMHWVRQAPGQGLEWIGGVDPETDGAAYNQKFKGRATITRDTSTSTAYLELSSLRSEDTAVYYCTRGYDYDYALDYWGQGTLVTVSS VL: DIQMTQSPSSLSASVGDRVTITCRASSSVNFIHWYQQKPGKAPKPLISATSNLASGVPSRFSGSGSGTDFTLTISSLQPEDFATYYCQQWYSNPWTFGQGTKVEIK",0.335,0.000237,709000
"combination mutant LC7.HC5 Fab (Fab, V domains shown, Fab) VH: EVQLVQSGAEVKKPGASVKVSCKASGYTFTDSELHWVRQAPGQGLEWIGGVDPETDGAAYNQKFKGRATITRDTSTSTAYLELSSLRSEDTAVYYCTRGYDYDYALDYWGQGTLVTVSS VL: DIQMTQSPSSLSASVGDRVTITCRASSSVNFIHWYQQKPGKAPKPLISATSNLASGVPSRFSGSGSGTDFTLTISSLQPEDFATYYCQQWYSNPWTFGQGTKVEIK",0.745,0.000303,406000

# Biological target: T1, His-tagged human HtrA1 protease domain
# Assay: as above
# Remark: another data set of the same source
# Protocol: as §1
Binder,Kd [nM],koff [s⁻¹],kon [M⁻¹ s⁻¹]
"h15H6.v2 variant LC8 (LC-S92K) Fab (Fab, V domains shown, Fab-Flag tag fusion from 293T cells) VH: EVQLVQSGAEVKKPGASVKVSCKASGYTFTDSEMHWVRQAPGQGLEWIGGVDPETDGAAYNQKFKGRATITRDTSTSTAYLELSSLRSEDTAVYYCTRGYDYDYALDYWGQGTLVTVSS VL: DIQMTQSPSSLSASVGDRVTITCRASSSVNFIHWYQQKPGKAPKPLISATSNLASGVPSRFSGSGSGTDFTLTISSLQPEDFATYYCQQWKSNPWTFGQGTKVEIK",1.16,0.000397,343000
"h15H6.v2 variant LC9 (LC-S93I) Fab (Fab, V domains shown, Fab-Flag tag fusion from 293T cells) VH: EVQLVQSGAEVKKPGASVKVSCKASGYTFTDSEMHWVRQAPGQGLEWIGGVDPETDGAAYNQKFKGRATITRDTSTSTAYLELSSLRSEDTAVYYCTRGYDYDYALDYWGQGTLVTVSS VL: DIQMTQSPSSLSASVGDRVTITCRASSSVNFIHWYQQKPGKAPKPLISATSNLASGVPSRFSGSGSGTDFTLTISSLQPEDFATYYCQQWSINPWTFGQGTKVEIK",2.15,0.000404,188000
"h15H6.v2 variant LC10 (LC-F32V, LC-S92K) Fab (Fab, V domains shown, Fab-Flag tag fusion from 293T cells) VH: EVQLVQSGAEVKKPGASVKVSCKASGYTFTDSEMHWVRQAPGQGLEWIGGVDPETDGAAYNQKFKGRATITRDTSTSTAYLELSSLRSEDTAVYYCTRGYDYDYALDYWGQGTLVTVSS VL: DIQMTQSPSSLSASVGDRVTITCRASSSVNVIHWYQQKPGKAPKPLISATSNLASGVPSRFSGSGSGTDFTLTISSLQPEDFATYYCQQWKSNPWTFGQGTKVEIK",8.42,0.00213,253000
